{
  "source": "paper PMC3091828",
  "key": {"[1]": {"molecular_target": "CL-arrestin-2-L33C, bimane-labeled (UniProt P17870)", "test": "fluorescence polarisation"}, "[2]": {"molecular_target": "CL-arrestin-2-L33C, bimane-labeled (UniProt P17870)", "test": "fluorescence polarisation", "remark": "listed apart in the source"}},
  "note": "pKd: −log10 of the molar value. Read-outs that look alike come from different tables or passages of the source.",
  "data": [
    {"substance": "MBP-parkin (from UniProt O60260 1-465) (enzyme)", "values": [
      {"measurement": "pKd", "setting": "[1]", "result": 4.70},
      {"measurement": "pKd", "setting": "[2]", "result": 4.72}
    ]}
  ]
}
